The record followed here is patent publication US10227388B2, “Peptides and combination of peptides for use in immunotherapy against non-small cell lung cancer and other cancers” (immatics biotechnologies GmbH, priority 2015, dated 2019).

In one assay the test system is CD8+ T cells. The experiment in a line: In vitro immunogenicity: T-cell priming with artificial antigen presenting cells loaded with peptide/MHC complexes and anti-CD28 antibody, multimer readout. The conditions noted are these: for Wells positive [%]: HLA-A*02 restricted peptides, positive wells among evaluable; for in vitro immunogenicity, donors: percentage of positive donors; for in vitro immunogenicity, wells: percentage of positive wells. In kind it is cell-based, human. The procedure: In an aspect, the peptides are pre-screened for immunogenicity before being included in the warehouse. By way of example, and not limitation, the immunogenicity of the peptides included in the warehouse is determined by a method comprising in vitro T-cell priming through repeated stimulations of CD8+ T cells from healthy donors with artificial antigen presenting cells loaded with peptide/MHC complexes and anti-CD28 antibody.
In order to obtain information regarding the immunogenicity of the TUMAPs of the present invention, the inventors performed investigations using an in vitro T-cell priming assay based on repeated stimulations of CD8+ T cells with artificial antigen presenting cells (aAPCs) loaded with peptide/MHC complexes and anti-CD28 antibody.
In order to perform in vitro stimulations by artificial antigen presenting cells loaded with peptide-MHC complex (pMHC) and anti-CD28 antibody, the inventors first isolated CD8+ T cells from fresh HLA-A*02 leukapheresis products via positive selection using CD8 microbeads (Miltenyi Biotec, Bergisch-Gladbach, Germany) of healthy donors obtained from the University clinics Mannheim, Germany, after informed consent.
PBMCs and isolated CD8+ lymphocytes were incubated in T-cell medium (TCM) until use consisting of RPMI-Glutamax (Invitrogen, Karlsruhe, Germany) supplemented with 10% heat inactivated human AB serum (PAN-Biotech, Aidenbach, Germany), 100 U/ml Penicillin/100 μg/ml Streptomycin (Cambrex, Cologne, Germany), 1 mM sodium pyruvate (CC Pro, Oberdorla, Germany), 20 μg/ml Gentamycin (Cambrex). 2.5 ng/ml IL-7 (PromoCell, Heidelberg, Germany) and 10 U/ml IL-2 (Novartis Pharma, Nürnberg, Germany) were also added to the TCM at this step.
Generation of pMHC/anti-CD28 coated beads, T-cell stimulations and readout was performed in a highly defined in vitro system using four different pMHC molecules per stimulation condition and 8 different pMHC molecules per readout condition.
The purified co-stimulatory mouse IgG2a anti human CD28 Ab 9.3 (Jung et al., 1987) was chemically biotinylated using Sulfo-N-hydroxysuccinimidobiotin as recommended by the manufacturer (Perbio, Bonn, Germany). Beads used were 5.6 μm diameter streptavidin coated polystyrene particles (Bangs Laboratories, Illinois, USA).
pMHC used for positive and negative control stimulations were A*0201/MLA-001 (peptide […] (SEQ ID NO. 664) from modified Melan-A/MART-1) and A*0201/DDX5-001 ([…] from DDX5, SEQ ID NO. 665), respectively.
800.000 beads/200 μl were coated in 96-well plates in the presence of 4×12.5 ng different biotin-pMHC, washed and 600 ng biotin anti-CD28 were added subsequently in a volume of 200 μl. Stimulations were initiated in 96-well plates by co-incubating 1×10^6 CD8+ T cells with 2×10^5 washed coated beads in 200 μl TCM supplemented with 5 ng/ml IL-12 (PromoCell) for 3 days at 37° C. Half of the medium was then exchanged by fresh TCM supplemented with 80 U/ml IL-2 and incubating was continued for 4 days at 37° C. This stimulation cycle was performed for a total of three times. For the pMHC multimer readout using 8 different pMHC molecules per condition, a two-dimensional combinatorial coding approach was used as previously described (Andersen et al., 2012) with minor modifications encompassing coupling to 5 different fluorochromes. Finally, multimeric analyses were performed by staining the cells with Live/dead near IR dye (Invitrogen, Karlsruhe, Germany), CD8-FITC antibody clone SK1 (BD, Heidelberg, Germany) and fluorescent pMHC multimers. For analysis, a BD LSRII SORP cytometer equipped with appropriate lasers and filters was used. Peptide specific cells were calculated as percentage of total CD8+ cells. Evaluation of multimeric analysis was done using the FlowJo software (Tree Star, Oreg., USA). In vitro priming of specific multimer+CD8+ lymphocytes was detected by comparing to negative control stimulations. […]

The target of a further assay is HLA-A*02:01 (Homo sapiens, UniProt P04439, D140Y/D185E/D98H/E176V/E277Q/G131W/G231S/I119V/I121R/I166T/I218V/L300P/L318F/N151K/N90K/P208A/P217A/Q86G/Q94H/R138H/R169H/T345S). The experiment in a line: MHC binding assay (UV-ligand exchange, ELISA, peptide exchange yield). The following applies: binding of HLA-class I restricted peptides to HLA-A*02:01. An outline of the steps: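 Exchange yield was quantified as stabilized β2m-containing complex: monomers diluted 100-fold bound to streptavidin-coated wells, probed with HRP-conjugated anti-β2m, read at 450 nm after TMB. Complexes had been generated by UV cleavage of a photolabile ligand and replacement with the candidate peptide.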
Background: An ELISA detects its analyte on a solid surface through an enzyme-linked reagent.

For the substance “8 (FTLGNVVGMYL; listed as Homo sapiens) [compound 8]”, the “Wells positive [%]” value in the assay with CD8+ T cells was “″+″ (<20% = +)”. Besides, the “Peptide exchange (MHC class I binding score, peptide exchange yield)” value (shortened to “Peptide exchange”) in the assay with HLA-A*02:01 is “″++++″ (≥75% = ++++)”.

For “443 (GLWEIENNPTV; listed as Homo sapiens) [compound 443]”, the “Wells positive [%]” value in the assay with CD8+ T cells is given as “″+″ (<20% = +)”. In addition, in the assay with HLA-A*02:01, the “Peptide exchange” value is recorded as “″+++″ (≥50% = +++)”.

For “79 (SLFIGEKAVLL; listed as Homo sapiens) [compound 79]”, in the assay with CD8+ T cells, the “Wells positive [%]” value is “″+″ (<20% = +)”. The “Peptide exchange” value with HLA-A*02:01 is on record as “″+++″ (≥50% = +++)”.

Take “2 (SLLEADPFL; listed as Homo sapiens) [compound 2]”: the “Wells positive [%]” value with CD8+ T cells is recorded as “″+″ (<20% = +)”. For the same substance, in the assay with HLA-A*02:01, the “Peptide exchange” value is given as “″+++″ (≥50% = +++)”.

Take “648 (LLWGNAIFL; listed as Homo sapiens) [compound 648]”: in the assay with CD8+ T cells, the “in vitro immunogenicity, donors” value was “+++ (50%-69% = +++)” and the “in vitro immunogenicity, wells” value was “++ (20%-49% = ++)”.

For the substance “56 (KLYEGIPVLL; listed as Homo sapiens) [compound 56]”, the “Wells positive [%]” value in the assay with CD8+ T cells is recorded as “″+″ (<20% = +)”. For the same substance, the “Peptide exchange” value in the assay with HLA-A*02:01 is on record as “″++++″ (≥75% = ++++)”.

Take “659 (ILFPDIIARA; listed as Homo sapiens) [compound 659]”: in the assay with CD8+ T cells, the “in vitro immunogenicity, donors” value was “+++ (50%-69% = +++)” and the “in vitro immunogenicity, wells” value is given as “+ (<20% = +)”.

In the case of “662 (KIQEILTQV; listed as Homo sapiens) [compound 662]”, in the assay on CD8+ T cells, the “in vitro immunogenicity, donors” value is reported as “+++ (50%-69% = +++)” and the “in vitro immunogenicity, wells” value is given as “+ (<20% = +)”.

In the case of “663 (KIQEMQHFL; listed as Homo sapiens) [compound 663]”, in the assay with CD8+ T cells, the “in vitro immunogenicity, donors” value is reported as “+++ (50%-69% = +++)” and the “in vitro immunogenicity, wells” value is “+ (<20% = +)”.

Take “652 (TLWYRAPEV; listed as Homo sapiens) [compound 652]”: in the assay on CD8+ T cells, the “in vitro immunogenicity, donors” value is “++++ (> = 70% = ++++)” and the “in vitro immunogenicity, wells” value was “+++ (50%-69% = +++)”.

For “462 (KLAKQPETV; listed as Homo sapiens) [compound 462]”, the “Peptide exchange” value with HLA-A*02:01 is given as “″+++″ (≥50% = +++)”.

As for “430 (HLYSSIEHLTT; listed as Homo sapiens) [compound 430]”, in the assay with HLA-A*02:01, the “Peptide exchange” value is recorded as “″+++″ (≥50% = +++)”.

“452 (ILLEHGADPNL; listed as Homo sapiens) [compound 452]”: the “Peptide exchange” value with HLA-A*02:01 was “″+++″ (≥50% = +++)”.

As to “312 (IISDLTIAL; listed as Homo sapiens) [compound 312]”, the “Peptide exchange” value in the assay with HLA-A*02:01 is given as “″+++″ (≥50% = +++)”.

“598 (FLFPHSVLV; listed as Homo sapiens) [compound 598]”: in the assay with HLA-A*02:01, the “Peptide exchange” value was “″+++″ (≥50% = +++)”.

Take “491 (GLNDRSDAV; listed as Homo sapiens) [compound 491]”: the “Peptide exchange” value with HLA-A*02:01 is given as “″++″ (≥20% = ++)”.

For “237 (ALLEASGTLLL; listed as Homo sapiens) [compound 237]”, the “Peptide exchange” value with HLA-A*02:01 was “″++++″ (≥75% = ++++)”.

With “587 (VMNDRLYAI; listed as Homo sapiens) [compound 587]”, in the assay with HLA-A*02:01, the “Peptide exchange” value is on record as “″+++″ (≥50% = +++)”.

Take “200 (LLFGSVQEV; listed as Homo sapiens) [compound 200]”: the “Peptide exchange” value with HLA-A*02:01 is “″+++″ (≥50% = +++)”.

Consider “461 (VMFRTPLASV; listed as Homo sapiens) [compound 461]”, for which, in the assay with HLA-A*02:01, the “Peptide exchange” value was “″++″ (≥20% = ++)”.

For “494 (ALQPEPIKV; listed as Homo sapiens) [compound 494]”, in the assay with HLA-A*02:01, the “Peptide exchange” value was “″++″ (≥20% = ++)”.

For the substance “565 (ALQETPTSV; listed as Homo sapiens) [compound 565]”, the “Peptide exchange” value with HLA-A*02:01 is given as “″++″ (≥20% = ++)”.

Consider “92 (YLIPFTGIVGL; listed as Homo sapiens) [compound 92]”, for which the “Peptide exchange” value with HLA-A*02:01 is recorded as “″++″ (≥20% = ++)”.

As to “10 (FLATFPLAAV; listed as Homo sapiens) [compound 10]”, in the assay with HLA-A*02:01, the “Peptide exchange” value was “″++++″ (≥75% = ++++)”.

Regarding “110 (FLSQVDFEL; listed as Homo sapiens) [compound 110]”, the “Peptide exchange” value with HLA-A*02:01 is listed as “″+++″ (≥50% = +++)”.

Consider “562 (YLEELPEKLKL; listed as Homo sapiens) [compound 562]”, for which the “Peptide exchange” value in the assay with HLA-A*02:01 was “″+++″ (≥50% = +++)”.

Regarding “98 (LIIDQADIYL; listed as Homo sapiens) [compound 98]”, the “Peptide exchange” value with HLA-A*02:01 is “″+++″ (≥50% = +++)”.

Regarding “15 (VLLTFKIFL; listed as Homo sapiens) [compound 15]”, the “Peptide exchange” value in the assay with HLA-A*02:01 is “″++″ (≥20% = ++)”.

Consider “547 (TLDITPHTV; listed as Homo sapiens) [compound 547]”, for which, in the assay with HLA-A*02:01, the “Peptide exchange” value was “″+++″ (≥50% = +++)”.

“45 (SLWQDIPDV; listed as Homo sapiens) [compound 45]”: in the assay with HLA-A*02:01, the “Peptide exchange” value was “″+++″ (≥50% = +++)”.

With “374 (FLLQQHLISA; listed as Homo sapiens) [compound 374]”, in the assay with HLA-A*02:01, the “Peptide exchange” value is “″++″ (≥20% = ++)”.

Turning to “222 (NLIENVQRL; listed as Homo sapiens) [compound 222]”, in the assay with HLA-A*02:01, the “Peptide exchange” value is listed as “″++″ (≥20% = ++)”.

Consider “434 (KVSNSGITRV; listed as Homo sapiens) [compound 434]”, for which the “Peptide exchange” value with HLA-A*02:01 is on record as “″++″ (≥20% = ++)”.

In the case of “303 (AILPQLFMV; listed as Homo sapiens) [compound 303]”, the “Peptide exchange” value with HLA-A*02:01 was “″++++″ (≥75% = ++++)”.

For the substance “381 (FIDEAYVEV; listed as Homo sapiens) [compound 381]”, in the assay with HLA-A*02:01, the “Peptide exchange” value is on record as “″++″ (≥20% = ++)”.

“472 (KLLEVSDDPQV; listed as Homo sapiens) [compound 472]”: in the assay with HLA-A*02:01, the “Peptide exchange” value is on record as “″+++″ (≥50% = +++)”.

With “99 (ALVSKGLATV; listed as Homo sapiens) [compound 99]”, in the assay with HLA-A*02:01, the “Peptide exchange” value was “″++″ (≥20% = ++)”.

Regarding “74 (ALLDPEVLSIFV; listed as Homo sapiens) [compound 74]”, the “Peptide exchange” value in the assay with HLA-A*02:01 is reported as “″+++″ (≥50% = +++)”.

With “585 (ALWDLAADKQTL; listed as Homo sapiens) [compound 585]”, in the assay with HLA-A*02:01, the “Peptide exchange” value was “″++++″ (≥75% = ++++)”.

In the case of “309 (GLFDGVPTTA; listed as Homo sapiens) [compound 309]”, in the assay with HLA-A*02:01, the “Peptide exchange” value is on record as “″+++″ (≥50% = +++)”.

In the case of “459 (ALITEVVRL; listed as Homo sapiens) [compound 459]”, the “Peptide exchange” value in the assay with HLA-A*02:01 was “″++″ (≥20% = ++)”.
